Assay results as given in patent US20220389097A1 (Genentech, published 2022).

Key:
human TREM2-Fc [1] = target: T1, human TREM2-Fc (human, UniProt Q9NZC2 19-174); assay: SPR (Biacore T200), 37 C; TREM2-Fc on protein A chip, Fab in solution
T1 construct: also called hTREM2; not shown: Fc part (captured by anti-human IgG1 Fc or protein A)
T1 sequence: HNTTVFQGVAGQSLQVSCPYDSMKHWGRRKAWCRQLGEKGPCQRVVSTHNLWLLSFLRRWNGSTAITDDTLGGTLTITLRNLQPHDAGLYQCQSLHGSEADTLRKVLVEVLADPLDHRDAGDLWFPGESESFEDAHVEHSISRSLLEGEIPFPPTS
Description: The humanized heavy chain variants were tested for affinity by combining the heavy chain variants with the 3.10C2-L1 light chain. These variants were expressed as Fab fragments, purified by protein A chromatography, and tested for affinity for TREM2-Fc coated on a protein A chip with a Biacore™ T200 apparatus.

[2] = target: T2, soluble monomeric human TREM2 (human, UniProt Q9NZC2 19-174, limits assumed); assay: SPR (Biacore T200), 37 C; IgG on anti-CH1 chip, soluble monomeric TREM2
T2 construct: Not the same as shed sTREM2; also called soluble monomeric TREM2
T2 sequence: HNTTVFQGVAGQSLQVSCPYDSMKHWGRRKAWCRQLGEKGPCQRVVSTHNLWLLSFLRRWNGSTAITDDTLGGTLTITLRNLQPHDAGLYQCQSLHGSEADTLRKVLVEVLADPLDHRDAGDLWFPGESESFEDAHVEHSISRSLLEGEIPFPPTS

human TREM2-Fc [3] = target: T1, human TREM2-Fc; assay: SPR (Biacore T200), 37 C; TREM2-Fc on protein A chip, soluble Fab
Description: (§1) Affinity of h3.10C2.v1 (FIGS. 9A-B) for human and cynomolgus TREM2 was determined by SPR in a Biacore™ T200 apparatus in two formats, both at 37° C. In one format TREM2-Fc was immobilized on protein A chips and soluble anti-TREM2 Fab fragments used as ligands. In the second format, anti-TREM2 IgG was immobilized on anti-CH1 Biacore™ chips and used soluble monomeric TREM2 as ligand.

cynomolgus TREM2-Fc = target: T3, cynomolgus TREM2-Fc (cynomolgus monkey, UniProt A0A2K5UY34 49-204); assay: as above
T3 construct: also called cyno TREM2; not shown: Fc part
T3 sequence: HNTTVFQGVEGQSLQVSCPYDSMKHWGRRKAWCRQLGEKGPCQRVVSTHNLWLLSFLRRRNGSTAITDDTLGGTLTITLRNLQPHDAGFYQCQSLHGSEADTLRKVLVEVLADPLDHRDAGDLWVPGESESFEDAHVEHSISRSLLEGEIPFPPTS
Description: as §1

B1: 3.10C2-H6/3.10C2-L1 Fab (Fab, V domains shown)
VH: EVQLVESGGGLVQPGGSLKLSCATSGFPFSNVWMHWVRQASGKGLEWVAHIKAKSDNYATYYAESVKGRFTISRDDSKNTIYLQMNSLKTEDTAVYYCTGLDYWGQGTTVTVSS
VL: DTVLTQSPLSLPVTPGEPASISCRSSKSLLGVRDITSLYWYLQKPGQSPQLLIYRMSNLASGVPDRFSGSGSETDFTLKISRVEAEDVGVYYCAQFLRYPYTFGQGTKVEIK
koff (human TREM2-Fc [1]): 0.0013 s⁻¹
kon (human TREM2-Fc [1]): 210000 M⁻¹ s⁻¹

B2: 3.10C2 IgG (rat variable regions; captured by anti-CH1 or anti-human Fab chips) (antibody, V domains shown)
VH: EVQLVETGGSLVQPGKSLKLTCATSGFPFSNVWMHWVRQSPEKQLEWIAHIKAKSDNYATYYAESVKGRFTISRDDSKTSIYLQMNSLKEDDTAIYYCTGLDYWGQGVMVTVSS
VL: DTVLTQAPLSLSVTPGESASISCRSSKSLLGVRDITSLYWYLQKPGKSPQLLIYRMSNLASGVPDRFSGSGSETDFTLKISEVETEDVGVYYCAQFLRYPYTFGPGTKLELK
notes: also called parental 3.10C2 clone; 3.10C2 control
Kd [2]: 0.12 nM
koff [2]: 9.6e-05 s⁻¹
kon [2]: 780000 M⁻¹ s⁻¹

B3: 3.10C2-H7/3.10C2-L1 Fab (Fab, V domains shown)
VH: EVQLVESGGGLVQPGGSLKLSCATSGFPFSNVWMHWVRQASGKGLEWVAHIKAKSDNYATYYAESVKGRFTISRDDSKNTAYLQMNSLKTEDTAVYYCTGLDYWGQGTTVTVSS
VL: DTVLTQSPLSLPVTPGEPASISCRSSKSLLGVRDITSLYWYLQKPGQSPQLLIYRMSNLASGVPDRFSGSGSETDFTLKISRVEAEDVGVYYCAQFLRYPYTFGQGTKVEIK
koff (human TREM2-Fc [1]): 0.018 s⁻¹
kon (human TREM2-Fc [1]): 1.2e+06 M⁻¹ s⁻¹

B4: 3.10C2-H4/3.10C2-L1 Fab (Fab, V domains shown)
VH: EVQLVESGGGLVQPGGSLKLSCAASGFPFSNVWMHWVRQASGKGLEWIGHIKAKSDNYATYYAESVKGRFTISRDDSKNTIYLQMNSLKTEDTAVYYCTGLDYWGQGTTVTVSS
VL: DTVLTQSPLSLPVTPGEPASISCRSSKSLLGVRDITSLYWYLQKPGQSPQLLIYRMSNLASGVPDRFSGSGSETDFTLKISRVEAEDVGVYYCAQFLRYPYTFGQGTKVEIK
koff (human TREM2-Fc [1]): 0.024 s⁻¹
kon (human TREM2-Fc [1]): 1.2e+06 M⁻¹ s⁻¹

B5: h3.10C2.v1 Fab (Fab, V domains shown)
VH: EVQLVESGGGLVQPGGSLKLSCATSGFPFSNVWMHWVRQASGKGLEWIAHIKAKSDNYATYYAESVKGRFTISRDDSKTTIYLQMNSLKTEDTAVYYCTGLDYWGQGTTVTVSS
VL: DVVMTQSPLSLPVTPGEPASISCRSSRSLLTSKGITSLYWYLQKPGQSPQLLIYRMSNLASGVPDRFSGSGSGTDFTLKISRVEAEDVGVYYCAQFLVYPYTFGQGTKVEIK
notes: also called 3.10C2-H1/3.27H7-L6
Kd (human TREM2-Fc [3]): 0.39 nM
koff (human TREM2-Fc [3]): 0.00057 s⁻¹
kon (human TREM2-Fc [3]): 1.5e+06 M⁻¹ s⁻¹
Kd (cynomolgus TREM2-Fc): 0.43 nM
koff (cynomolgus TREM2-Fc): 0.00062 s⁻¹
kon (cynomolgus TREM2-Fc): 1.4e+06 M⁻¹ s⁻¹

B6: 3.10C2-H2/3.10C2-L1 Fab (Fab, V domains shown)
VH: EVQLVESGGGLVQPGGSLKLSCATSGFPFSNVWMHWVRQASGKGLEWVGHIKAKSDNYATYYAESVKGRFTISRDDSKNTIYLQMNSLKTEDTAVYYCTGLDYWGQGTTVTVSS
VL: DTVLTQSPLSLPVTPGEPASISCRSSKSLLGVRDITSLYWYLQKPGQSPQLLIYRMSNLASGVPDRFSGSGSETDFTLKISRVEAEDVGVYYCAQFLRYPYTFGQGTKVEIK
koff (human TREM2-Fc [1]): 0.0059 s⁻¹
kon (human TREM2-Fc [1]): 520000 M⁻¹ s⁻¹
